Measurements reported in PMC6309729.
Read-outs that look alike come from different tables or passages of the source.

How the values were obtained:
[1] = target: FtsY (Escherichia coli) (UniProt P10121); conditions: cited from earlier work
[2] = target: cpSRP54 (chloroplast SRP54), wildtype (Arabidopsis thaliana) (UniProt P37107); test: GTPase inhibition assay
[3] = target: cpSRP54 (chloroplast SRP54), wildtype (Arabidopsis thaliana) (UniProt P37107); test: GTPase inhibition assay; remark: listed apart in the source
[4] = target: cpSRP54 (chloroplast SRP54), wildtype (Arabidopsis thaliana) (UniProt P37107)
[5] = target: cpFtsY(321C)-DACM (UniProt O80842); test: FRET or BRET
[6] = target: cpFtsY(A168W) labeled for FRET; test: FRET or BRET
[7] = target: cpFtsY (chloroplast SRP receptor), wildtype (UniProt O80842)
[8] = target: cpFtsY (chloroplast SRP receptor), wildtype (UniProt O80842); test: GTPase inhibition assay
[9] = target: cpFtsY (chloroplast SRP receptor), wildtype (UniProt O80842); test: GTPase inhibition assay; remark: listed apart in the source

Chain of cpSRP54 (chloroplast SRP54), wildtype (Arabidopsis thaliana) (P37107 76-564): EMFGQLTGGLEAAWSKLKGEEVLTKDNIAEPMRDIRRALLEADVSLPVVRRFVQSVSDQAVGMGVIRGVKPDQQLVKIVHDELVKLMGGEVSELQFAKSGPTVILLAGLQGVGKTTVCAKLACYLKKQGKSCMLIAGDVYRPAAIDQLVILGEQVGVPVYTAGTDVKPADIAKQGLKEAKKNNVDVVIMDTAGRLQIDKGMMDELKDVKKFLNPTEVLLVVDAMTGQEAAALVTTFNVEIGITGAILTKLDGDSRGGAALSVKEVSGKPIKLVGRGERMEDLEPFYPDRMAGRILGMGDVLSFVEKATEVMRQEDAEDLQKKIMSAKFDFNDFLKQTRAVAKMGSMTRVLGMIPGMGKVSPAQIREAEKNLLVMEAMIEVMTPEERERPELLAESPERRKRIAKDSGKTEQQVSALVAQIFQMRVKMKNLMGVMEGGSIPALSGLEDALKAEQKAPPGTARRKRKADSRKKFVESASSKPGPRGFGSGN
Chain of FtsY (Escherichia coli) (P10121 2-497): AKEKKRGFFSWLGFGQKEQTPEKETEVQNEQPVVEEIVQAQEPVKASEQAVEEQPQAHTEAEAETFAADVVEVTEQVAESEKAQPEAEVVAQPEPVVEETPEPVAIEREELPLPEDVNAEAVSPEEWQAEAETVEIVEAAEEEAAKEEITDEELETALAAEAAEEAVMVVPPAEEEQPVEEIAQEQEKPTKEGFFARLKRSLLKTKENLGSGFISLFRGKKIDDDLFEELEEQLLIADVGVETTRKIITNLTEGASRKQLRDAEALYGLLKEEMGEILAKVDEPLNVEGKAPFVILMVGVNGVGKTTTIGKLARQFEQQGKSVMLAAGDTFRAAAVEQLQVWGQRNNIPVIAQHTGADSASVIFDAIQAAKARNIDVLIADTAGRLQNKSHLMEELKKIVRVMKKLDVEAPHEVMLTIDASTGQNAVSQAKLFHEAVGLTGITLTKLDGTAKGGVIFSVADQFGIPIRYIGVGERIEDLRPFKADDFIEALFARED
Chain of Ffh (P0AGD7 whole entry): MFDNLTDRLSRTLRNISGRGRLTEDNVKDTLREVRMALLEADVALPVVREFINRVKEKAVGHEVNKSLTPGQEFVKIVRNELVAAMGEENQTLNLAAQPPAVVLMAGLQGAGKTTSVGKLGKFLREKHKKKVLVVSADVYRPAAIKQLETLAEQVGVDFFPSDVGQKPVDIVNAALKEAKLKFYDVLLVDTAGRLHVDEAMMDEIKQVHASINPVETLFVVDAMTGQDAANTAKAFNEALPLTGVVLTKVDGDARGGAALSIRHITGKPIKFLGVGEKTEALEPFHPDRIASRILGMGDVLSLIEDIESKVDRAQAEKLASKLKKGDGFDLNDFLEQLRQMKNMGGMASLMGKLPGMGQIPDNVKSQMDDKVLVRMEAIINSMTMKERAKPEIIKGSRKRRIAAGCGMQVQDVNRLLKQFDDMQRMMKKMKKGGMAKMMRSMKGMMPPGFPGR

Ffh (from UniProt P0AGD7)
Kd [1]: 6000 nM

cpFtsY(A168W) (natural protein)
Ki [2]: 230 nM
Ki [3]: < 200 nM

cpFtsY(F165A) (natural protein)
kcat/Km of the reciprocally stimulated GTPase reaction [4]: 633000 M⁻¹ s⁻¹

cpFtsY(R166A) (natural protein)
kcat/Km of the reciprocally stimulated GTPase reaction [4]: 14800 M⁻¹ s⁻¹
Ki [2]: 3200 nM

cpSRP54(234C)-BODIPY-FL (from UniProt P37107 76-564) (natural protein)
Kd [5]: 7000 nM
kon [5]: 500000 M⁻¹ s⁻¹
Kd [6]: 350 nM

cpSRP54(A142W) (natural protein)
Km of the reciprocally stimulated GTPase reaction [7]: 0.24 µM
kcat/Km of the reciprocally stimulated GTPase reaction [7]: 46700 M⁻¹ s⁻¹
Ki [8]: 110 nM
Ki [9]: < 200 nM

cpSRP54(D137A) (natural protein)
kcat/Km of the reciprocally stimulated GTPase reaction [7]: 3170 M⁻¹ s⁻¹
Ki [8]: 2000 nM

cpSRP54(R140A) (natural protein)
kcat/Km of the reciprocally stimulated GTPase reaction [7]: 9000 M⁻¹ s⁻¹
Ki [8]: 510 nM
